From US20240174764A1 (Memorial Sloan Kettering, published 2024)

How the values were obtained:
[1] = biological target: T1, BTM protein (synthetic fusion protein of the highly conserved extracellular portion of MUC16^c57-114 fused to … (human, UniProt Q8WXI7 14394-14451)); assay: SPR (BiaCore X100), His-tagged BiTED on NTA chip, BTM as analyte, 1:1 model
T1 construct: domain: highly conserved extracellular portion of MUC16^c57-114; also called MUC16 BTM protein; Muc16 BTM protein; not shown: human Fc (pFUSE backbone)
T1 sequence: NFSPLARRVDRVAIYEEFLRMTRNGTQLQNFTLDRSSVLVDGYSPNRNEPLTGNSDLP
Method: (§1) Kinetic Analysis of BiTEDs binding to MUC16^ecto. The kinetic analysis of EXT170-8 BiTEDs and Muc16 BTM protein (55mer highly conserved ectodomain region of MUC16) was performed on a BiaCore X100 instrument loaded with an NTA sensor chip. EXT170-8 BiTED comprises the amino acid of SEQ ID NO: 89 and the leader sequence of SEQ ID NO: 93.
(§2) The raw data was analyzed using the kinetic model 1:1 binding by Biacore X100 evaluation software.
MUC16^ecto-BiTEDs were purified and confirmed by SDS-page (FIG. 1(c)). To determine the binding affinity of BiTEDs to MUC16^ecto, a previously validated BTM protein (a synthetic fusion protein consisting of the highly conserved extracellular portion of MUC16^c57-114 fused to a human Fc backbone pFUSE) was used, and kinetic analysis was performed using surface plasmon resonance.

[2] = biological target: T1, BTM protein (synthetic fusion protein …); assay: SPR, BiaCore X100, His-tagged EXT170-8 BiTEDs immobilised on an NTA sensor chip, MUC16 BTM protein injected at 35.625 to 570 nM, 1:1 binding model [d]
Method: as §1, §2

Kd [1]: 69.9 nM
koff [2]: 0.0157 s⁻¹
kon [2]: 224000 M⁻¹ s⁻¹
B1: EXT170-8 BiTED (MUC16^ecto-specific Bispecific T-cell engaging diabody, Clone 8 (LH)/anti-CD3 bispecific antibody) (bispecific antibody)
chain: DIQLTQSPSAVSASVGDRVTITCRASQDVSKWLAWYQQKPGKAPRLLISAASGLQSWVPSRFSGSGSGTEFTLSISSLQPEDFATYYCQQANSFPWTFGQGTKVEIKRSRGGGGSGGGGSGGGGSLEMAQVQLQQWGAGLLKPSETLSLTCAVYGGSFSGYYWSWIRQPPGKGLEWIGEINHSGSTNYNPSLKSRVTISVDTSKNQFSLKLSSVTAADTAVYYCARQSYITDSWGQGTLVTVSSTSGGGGSDVQLVQSGAEVKKPGASVKVSCKASGYTFTRYTMHWVRQAPGQGLEWIGYINPSRGYTNYADSVKGRFTITTDKSTSTAYMELSSLRSEDTATYYCARYYDDHYCLDYWGQGTTVTVSSGEGTSTGSGGSGGSGGADDIVLTQSPATLSLSPGERATLSCRASQSVSYMNWYQQKPGKAPKRWIYDTSKVASGVPARFSGSGSGTDYSLTINSLEAEDAATYYCQQWSSNPLTFGGGTKVEIKHHHHHH
notes: The molecule was His-tagged in SPR and biotinylated in ELISA; also called MUC16^ecto-BiTEDs; EXT170-8 BiTEDs
